In publication PMC3161976:

Tests used:
[1] = target: GST-Tnp3 (Transportin 3), full length (human) (UniProt Q9Y5L0); assay: pull-down; GST-Tnp3, GST-Tnp3 DC825 or GST-Xpo-t held on glutathione-Sepharose 4B beads, with purified HIV-1 vector disrupted by gentle sonication (50 µl), with or without RanQ69L-GTP; binding buffer 50 mM Hepes pH 7.3, 200 mM NaCl, 2 mM Mg(Ac)2, 10 µM GTP; 4°C; silver stain and Western blot with anti-capsid antibody, ImageJ quantification
[2] = target: GST-Tnp3 DC825 deletion mutant (human) (UniProt Q9Y5L0); assay: as above
Chain of GST-Tnp3 DC825 deletion mutant (human) (Q9Y5L0 1-825, stated change not applied): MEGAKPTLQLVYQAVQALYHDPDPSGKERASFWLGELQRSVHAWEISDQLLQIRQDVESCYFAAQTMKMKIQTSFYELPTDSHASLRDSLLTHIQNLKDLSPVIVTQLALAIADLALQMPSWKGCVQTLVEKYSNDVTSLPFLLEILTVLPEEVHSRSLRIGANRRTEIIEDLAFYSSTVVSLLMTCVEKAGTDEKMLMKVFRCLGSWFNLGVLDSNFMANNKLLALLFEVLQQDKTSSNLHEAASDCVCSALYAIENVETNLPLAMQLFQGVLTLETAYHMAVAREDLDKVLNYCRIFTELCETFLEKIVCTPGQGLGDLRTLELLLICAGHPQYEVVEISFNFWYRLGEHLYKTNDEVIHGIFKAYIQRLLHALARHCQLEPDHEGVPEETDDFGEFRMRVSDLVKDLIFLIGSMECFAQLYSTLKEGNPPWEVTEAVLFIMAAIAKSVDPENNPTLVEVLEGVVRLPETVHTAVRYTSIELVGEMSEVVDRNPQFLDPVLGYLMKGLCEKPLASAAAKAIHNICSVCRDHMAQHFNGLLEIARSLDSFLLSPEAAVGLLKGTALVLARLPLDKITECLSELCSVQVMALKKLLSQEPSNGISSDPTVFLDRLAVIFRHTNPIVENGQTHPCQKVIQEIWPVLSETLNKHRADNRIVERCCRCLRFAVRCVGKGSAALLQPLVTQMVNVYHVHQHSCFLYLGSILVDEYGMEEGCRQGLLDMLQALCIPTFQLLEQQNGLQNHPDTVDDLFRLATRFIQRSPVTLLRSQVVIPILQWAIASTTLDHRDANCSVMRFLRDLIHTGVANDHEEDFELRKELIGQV

Chain of GST-Tnp3 (Transportin 3), full length (human) (Q9Y5L0 whole entry): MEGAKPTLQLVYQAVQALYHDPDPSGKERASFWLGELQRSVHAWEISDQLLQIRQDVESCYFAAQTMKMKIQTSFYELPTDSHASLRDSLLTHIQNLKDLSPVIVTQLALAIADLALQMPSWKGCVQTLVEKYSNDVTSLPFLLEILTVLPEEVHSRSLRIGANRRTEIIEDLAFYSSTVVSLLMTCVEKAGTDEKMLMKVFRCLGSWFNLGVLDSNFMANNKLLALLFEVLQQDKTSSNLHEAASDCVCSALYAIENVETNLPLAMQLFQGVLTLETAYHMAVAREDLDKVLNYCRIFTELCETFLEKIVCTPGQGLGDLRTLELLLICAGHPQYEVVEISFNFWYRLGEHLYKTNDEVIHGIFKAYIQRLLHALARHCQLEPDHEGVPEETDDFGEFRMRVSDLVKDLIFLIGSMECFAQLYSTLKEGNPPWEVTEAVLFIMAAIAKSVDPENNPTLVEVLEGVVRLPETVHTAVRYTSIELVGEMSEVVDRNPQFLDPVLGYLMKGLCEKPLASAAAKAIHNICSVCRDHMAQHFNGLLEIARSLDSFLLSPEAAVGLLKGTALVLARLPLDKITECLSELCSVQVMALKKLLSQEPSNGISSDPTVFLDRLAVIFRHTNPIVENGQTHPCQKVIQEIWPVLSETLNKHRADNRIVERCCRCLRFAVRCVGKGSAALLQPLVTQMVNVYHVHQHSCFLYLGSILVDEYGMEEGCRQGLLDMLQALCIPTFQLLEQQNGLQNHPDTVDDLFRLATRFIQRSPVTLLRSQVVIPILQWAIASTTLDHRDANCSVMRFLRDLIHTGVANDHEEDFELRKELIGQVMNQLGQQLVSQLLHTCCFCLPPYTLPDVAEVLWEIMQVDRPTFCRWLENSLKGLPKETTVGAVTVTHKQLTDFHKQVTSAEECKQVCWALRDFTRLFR

HIV-1 capsid protein (CA, p24) of purified HIV-1 vector particles (natural protein)
fold increase of binding with RanGTP against without [1]: 2.5 fold
fold reduction of binding against full-length Tnp3 [2]: 3 fold
